Results: US20210002363A1 (PHANES THERAPEUTICS, published 2021)
Read-outs that look alike come from different tables or passages of the source.

Experiments:
[1] = molecular target: T1, FOLR1 on SK-OV-3 cells (ATCC HTB-77) (Homo sapiens (Human), UniProt P15328 25-234); test: FACS on SK-OV-3 cells; MFI
T1 construct: Endogenous FOLR1 of the cell line; also called cells that are known to express FOLR1

[2] = molecular target: T2, Recombinant extracellular domain of human FOLR1 (Novoprotein, Cat#: C784) (human, UniProt P15328 25-233, limits assumed); test: ELISA on immobilized FOLR1 extracellular domain; O.D. 450 nm
T2 construct: Bought reagent; also called recombinant FOLR1; immobilized FOLR1 extracellular domain
T2 sequence (P15328 25-233 limits assumed): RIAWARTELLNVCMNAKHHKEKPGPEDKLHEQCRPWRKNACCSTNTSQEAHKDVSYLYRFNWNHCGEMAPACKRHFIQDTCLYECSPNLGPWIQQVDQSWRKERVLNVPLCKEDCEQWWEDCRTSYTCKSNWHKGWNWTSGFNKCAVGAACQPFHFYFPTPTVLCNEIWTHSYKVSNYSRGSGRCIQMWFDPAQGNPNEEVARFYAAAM

[3] = molecular target: T2, Recombinant extracellular domain of …; test: as above; remark: listed apart in the source

T1 sequence (P15328 25-234 limits assumed): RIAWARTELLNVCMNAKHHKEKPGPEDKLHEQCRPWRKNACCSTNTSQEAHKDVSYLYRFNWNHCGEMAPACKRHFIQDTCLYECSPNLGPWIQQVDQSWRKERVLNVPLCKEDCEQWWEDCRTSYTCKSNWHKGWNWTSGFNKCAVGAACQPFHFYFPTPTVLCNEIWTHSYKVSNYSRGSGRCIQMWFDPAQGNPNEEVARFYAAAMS

B1: F10-H1L2 (antibody, V domains shown)
VH: EVQLVQSGAEVKKPGSSVKVSCKASGYAFSSSWMNWVRQAPGQGLEWIGRIYPGDGYTHYNGMFKGRASLTADKSTSTGYMELSSLRSEDTAVFFCTRHGDFPYWYFDVWGRGTLVTVSP
VL: DIQMTQSPSTLSASVGDRVTITCRASENIDSYLAWYQQKPGRAPKLLVYAATNLAVGVPSRFSGSGSGTEYTLTISSLQPDDFATYYCQHHYSTPPTFGQGTKLEIK
notes: also called humanized F10 mAb H1L2
[1]
  EC50 (read off the curve): ~3 nM
[2]
  EC50 (read off the curve): ~0.3 nM

B2: F20-H1L3 (antibody, V domains shown)
VH: QVQLVQSGAEVKKPGSSVKVSCKASGYTFASYYLYWVRQAPGQGLEWIGEINPRSGGTNFNEKFKSRATVTVDKSTSTAYMELSSLRSEDTAVYYCSRSGRLRGFYTMDYWGQGTLVTVSS
VL: DIQMTQSPSTLSASVGDRVTITCKAGENVGSYVSWYQQKPGKAPKLLIYGASNRYTGVPARFSGSGSATEFTLTISSLQPDDFATYYCGQTYRFLTFGQGTKVEVK
notes: also called humanized F20 mAb H1L3
[3]
  EC50 (read off the curve): ~0.2 nM
